Data taken from article PMC5757174, “Biophysical characterization of Atg11, a scaffold protein essential for selective autophagy in yeast” (FEBS Open Bio, 2017).
Several values for one entry are separate records, joined by “and”; a condition that tells them apart may be missing. Identical values can stand only once.

Experiments:
[1] = target: Q12527; assay: SEC; Superose 6 Increase 10/300 GL, 20 mM Tris pH 8.0, 300 mM NaCl, 1 mM DTT; mass estimated from globular standards
[2] = target: the molecule itself; assay: AUC; sedimentation velocity, 42 000 r.p.m., 20 °C; full-length Atg11 at 0.65 mg/mL in 20 mM Tris pH 8.0, 300 mM NaCl, 1 mM DTT; c(s) by SEDFIT
[3] = target: Q12527; assay: SEC; Superdex 200 Increase 10/300 GL, 20 mM Tris pH 8.0, 150 mM NaCl; mass estimated from globular standards
[4] = target: the molecule itself; assay: AUC; sedimentation velocity, 36 000 r.p.m., 20 °C; Atg11_N at 0.61 mg/mL and Atg11_C at 0.92 mg/mL in 20 mM Tris pH 8.0, 150 mM NaCl; c(s) by SEDFIT

Protein	copies from the apparent SEC mass (globular standards) [1]	stoichiometry N [2]	copies from the apparent SEC mass (globular standards) [3]	stoichiometry N [4]
full-length S. cerevisiae Atg11 (residues 1-1178) (natural protein, UniProt Q12527 1-1178, looked up, Atg11, Saccharomyces cerevisiae, residues 1-1178 (1178 amino acids, 135 kDa); C terminus carried an HRV3C protease site followed by FLAG and 6x His tags; Residues of the HRV3C site may remain at the C terminus; also called full-length Atg11; source: High Five insect cells, baculovirus expression system, purified (Talon, HiTrap Q, HRV3C cleavage, Superose6 Increase); not shown: FLAG, C-terminal, …) MADADEYSTAPTQQEITPLQTTATIINAISGECITTNVDFFVSLDKFKQFIARKWKIPPDQLLILLPYGNKLKPSMFKELLINRSFTLNDFYVYDRRLFSLVSKPTPTNLLTSKDSNPMNSPNSNDLTETLEYLIKNSHISQYQGSDTIMIKPMPSPLEDADVDLSRLNYHSVTSLLTTNLGWLSALEIDVHYFKSLIPDIIAHIKRIFDGLTVCSQYLKLYCFDVESLYNSNVQFLNQLVDNGMTSKWEKCFNDTLSKLTALEGDSLQKFINIESLLENEKSVKILNHSINGKLNKIKREIDENASFRDIITVNIDRLRQMFTPNESKFELEDQMAESFEVLVSEMRTRSRNVLDKEEEEFNSQEFLKSMNVMLEKDKKESVKTLFTISQALYSQIGELIDLKKSLQKHAVAILGNIAFTQMEILGIKRLLLNECNKDLELYKKYEVEFAQVEDLPLIYGLYLIEKYRRLSWFQQILSFISNFNQDLELFKQNELRTRNKWVKNFGSIATVFCEDLLSSSDFKRLNEYHSHTSPPNEDEEDENENSIANYRQDLVKVSQAIDNYMTQIKETDVSEPIIDLLSKTLFETKRFHIIYSNFKNNNNNSSNGNSISPEGSIALKSDDVVKGYKTRIKKLESLLHEFQYSDIGHWPQGVLNTHLKPFRGSATSINKKKFLGASVLLEPANISEVNIDSVSQANNHQIQELESNVDDLLHQLQLLKEENNRKSMQISEMGKKISDLEVEKTAYRETLTNLNQELARLTNEEQSHRTEIFTLNASFKKQLNDIISQDNEKIEKLTGDYDDVSKSRERLQMDLDESNKKHEQEVNLLKADIERLGKQIVTSEKSYAETNSSSMEKGEKFETIPLAEDPGRENQISAYTQTLQDRIFDIISTNIFILENIGLLLTFDNNNNIQIRRVKGLKKGTAQSNILDESTQMLDAHDNSLIKSPVFQKLKDEYELIKSVANGSEKDTQQSIFLGNITQLYDNKLYEVAVIRRFKDIETLAKKLTKENKIKRTLLERFQREKVTLRNFQIGDLALFLPTRENVNSVGSMSSSTSSLSSSFSSVDLSTPPPLDAMSIQSSPSVIHSNVINQASISGRDKNKLMRPWAAFTAFEESTRYFLKDEKGLTKGKEWFVGRIVTLEHFVADSPSNNPFRLPKGSVWFQVTAVVVSYQGV	8–9 copies of Atg11	1.6 copies	–	–
C-terminal region of Atg11 (residues 700-1178) (domain or fragment, S. cerevisiae, UniProt Q12527 700-1178, looked up, Atg11, Saccharomyces cerevisiae, residues 700-1178 (55 kDa); Expressed from a modified pMAL-c2E vector as an MBP fusion with an HRV3C site; MBP was cleaved off; A few residues of the site may remain; also called Atg11_C; source: E. coli BL21(DE3), purified (Amylose, HRV3C cleavage, SP-Sepharose, Superdex 200)) NHQIQELESNVDDLLHQLQLLKEENNRKSMQISEMGKKISDLEVEKTAYRETLTNLNQELARLTNEEQSHRTEIFTLNASFKKQLNDIISQDNEKIEKLTGDYDDVSKSRERLQMDLDESNKKHEQEVNLLKADIERLGKQIVTSEKSYAETNSSSMEKGEKFETIPLAEDPGRENQISAYTQTLQDRIFDIISTNIFILENIGLLLTFDNNNNIQIRRVKGLKKGTAQSNILDESTQMLDAHDNSLIKSPVFQKLKDEYELIKSVANGSEKDTQQSIFLGNITQLYDNKLYEVAVIRRFKDIETLAKKLTKENKIKRTLLERFQREKVTLRNFQIGDLALFLPTRENVNSVGSMSSSTSSLSSSFSSVDLSTPPPLDAMSIQSSPSVIHSNVINQASISGRDKNKLMRPWAAFTAFEESTRYFLKDEKGLTKGKEWFVGRIVTLEHFVADSPSNNPFRLPKGSVWFQVTAVVVSYQGV	–	–	6 and 7–8 copies of each protein, respectively	2.1 copies
N-terminal region of Atg11 (residues 1-646) (protein) MADADEYSTAPTQQEITPLQTTATIINAISGECITTNVDFFVSLDKFKQFIARKWKIPPDQLLILLPYGNKLKPSMFKELLINRSFTLNDFYVYDRRLFSLVSKPTPTNLLTSKDSNPMNSPNSNDLTETLEYLIKNSHISQYQGSDTIMIKPMPSPLEDADVDLSRLNYHSVTSLLTTNLGWLSALEIDVHYFKSLIPDIIAHIKRIFDGLTVCSQYLKLYCFDVESLYNSNVQFLNQLVDNGMTSKWEKCFNDTLSKLTALEGDSLQKFINIESLLENEKSVKILNHSINGKLNKIKREIDENASFRDIITVNIDRLRQMFTPNESKFELEDQMAESFEVLVSEMRTRSRNVLDKEEEEFNSQEFLKSMNVMLEKDKKESVKTLFTISQALYSQIGELIDLKKSLQKHAVAILGNIAFTQMEILGIKRLLLNECNKDLELYKKYEVEFAQVEDLPLIYGLYLIEKYRRLSWFQQILSFISNFNQDLELFKQNELRTRNKWVKNFGSIATVFCEDLLSSSDFKRLNEYHSHTSPPNEDEEDENENSIANYRQDLVKVSQAIDNYMTQIKETDVSEPIIDLLSKTLFETKRFHIIYSNFKNNNNNSSNGNSISPEGSIALKSDDVVKGYKTRIKKLESLLHEFQYS	–	–	6 and 7–8 copies of each protein, respectively	–
